Numbering of substitutions follows the chain as printed.
Tests used:
F-CphI C84S = target: T1, F-CphI C84S (cyanophage S-PM2, UniProt Q7Y4H4 1-142, C84S); experiment: EMSA; no Mg2+ added; EMSA: 10 mM Tris-HCl pH 8.0, 2% glycerol, 2 ug/ml poly-dIdC, 2 ug/ml BSA, 0.2 mM DTT, on ice 15 min, 2 nM labeled DNA; 8% native PAGE in 1X TBE; details: protein: recombinant; tags: C-terminal Myc-His; label: 5'-32P on top strand; blunt
T1 sequence: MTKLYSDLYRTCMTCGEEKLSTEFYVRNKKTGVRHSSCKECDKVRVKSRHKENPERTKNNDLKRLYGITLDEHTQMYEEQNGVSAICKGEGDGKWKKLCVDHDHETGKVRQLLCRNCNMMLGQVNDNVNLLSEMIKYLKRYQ

F-CphI N118D = target: T2, F-CphI N118D (cyanophage S-PM2, UniProt Q7Y4H4 1-142, N118D); experiment: as above; details: protein: recombinant; tags: C-terminal Myc-His; label: 5'-32P on top strand; blunt
T2 sequence: T1 sequence with S84C, N118D

B1: SBM4-60Top duplex (dsDNA)
DNA 1: TGGTCTGGGTATGGAAGTGATGCACGAGCGCAACGCTCACAACTTCCCTCTCGACCTTGC
DNA 2: GCAAGGTCGAGAGGGAAGTTGTGAGCGTTGCGCTCGTGCATCACTTCCATACCCAGACCA
F-CphI C84S
  binding result: no binding
F-CphI N118D
  binding result: no binding

— publication PMC6083498, “F-CphI represents a new homing endonuclease family using the Endo VII catalytic motif”
